Reference: publication PMC9482650, “Quantitative fragmentomics allow affinity mapping of interactomes” (Nature Communications, 2022)

T1: ARHGEF11, O15085
T1 sequence (O15085 42-136, limits assumed, looked up): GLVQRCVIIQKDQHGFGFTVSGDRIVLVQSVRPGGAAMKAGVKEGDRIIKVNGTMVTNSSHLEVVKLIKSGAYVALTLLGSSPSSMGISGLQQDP

T2: APBA3_1, O96018
T2 sequence (O96018 389-490, limits assumed, looked up): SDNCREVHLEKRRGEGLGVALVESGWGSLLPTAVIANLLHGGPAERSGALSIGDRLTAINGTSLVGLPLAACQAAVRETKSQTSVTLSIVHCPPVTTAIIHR

T3: TJP3_3, O95049
T3 sequence (O95049 375-456, limits assumed, looked up): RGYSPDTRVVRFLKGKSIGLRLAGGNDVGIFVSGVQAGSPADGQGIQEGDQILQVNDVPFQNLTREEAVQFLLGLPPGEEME

T4: PDZD7_3, Q9H5P4
T4 sequence (Q9H5P4 857-944, limits assumed, looked up): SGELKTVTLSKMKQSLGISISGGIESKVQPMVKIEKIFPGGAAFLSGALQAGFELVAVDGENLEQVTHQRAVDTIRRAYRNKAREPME

T5: MPP6, Q9NZW5
T5 sequence (Q9NZW5 125-219, limits assumed, looked up): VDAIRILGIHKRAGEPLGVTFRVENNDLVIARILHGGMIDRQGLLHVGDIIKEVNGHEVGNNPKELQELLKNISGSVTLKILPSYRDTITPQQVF

T6: APBA2_1, Q99767
T6 sequence (Q99767 563-664, limits assumed, looked up): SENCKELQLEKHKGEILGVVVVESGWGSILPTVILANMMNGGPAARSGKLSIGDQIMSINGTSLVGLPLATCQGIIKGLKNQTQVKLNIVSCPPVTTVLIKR

T7: HTRA3, P83110
T7 sequence (P83110 354-453, limits assumed, looked up): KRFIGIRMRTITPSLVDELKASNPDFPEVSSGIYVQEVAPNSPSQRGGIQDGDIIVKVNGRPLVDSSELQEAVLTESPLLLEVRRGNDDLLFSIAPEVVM

T8: SNTG1, Q9NSN8
T8 sequence (Q9NSN8 52-150, limits assumed, looked up): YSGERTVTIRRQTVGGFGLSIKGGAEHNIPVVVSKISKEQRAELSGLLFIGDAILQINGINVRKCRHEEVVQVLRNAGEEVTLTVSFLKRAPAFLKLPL

T9: SNTA1, Q13424
T9 sequence (Q13424 82-180, limits assumed, looked up): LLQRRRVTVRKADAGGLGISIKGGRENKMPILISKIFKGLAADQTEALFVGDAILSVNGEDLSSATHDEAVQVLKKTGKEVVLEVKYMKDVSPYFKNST

T10: CARD11, Q9BXL7
T10 sequence (Q9BXL7 662-765, limits assumed, looked up): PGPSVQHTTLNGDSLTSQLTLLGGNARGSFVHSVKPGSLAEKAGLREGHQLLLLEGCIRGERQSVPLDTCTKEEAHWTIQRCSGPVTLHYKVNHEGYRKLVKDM

T11: NHERF3_4, Q5T2W1
T11 sequence (Q5T2W1 373-468, limits assumed, looked up): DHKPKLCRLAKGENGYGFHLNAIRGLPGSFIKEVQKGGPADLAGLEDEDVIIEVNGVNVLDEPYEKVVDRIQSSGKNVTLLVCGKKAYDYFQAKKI

T12: FRMPD1, Q5SYB0
T12 sequence (Q5SYB0 52-145, limits assumed, looked up): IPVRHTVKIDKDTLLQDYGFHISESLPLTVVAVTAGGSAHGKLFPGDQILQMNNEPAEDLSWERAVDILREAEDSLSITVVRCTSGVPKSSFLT

T13: TX1BP3, O14907
T13 sequence (O14907 10-122, limits assumed, looked up): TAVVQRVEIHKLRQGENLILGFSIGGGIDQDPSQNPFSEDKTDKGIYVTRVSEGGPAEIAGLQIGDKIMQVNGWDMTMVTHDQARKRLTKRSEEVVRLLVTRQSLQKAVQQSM

T14: MPP7, Q5T2T1
T14 sequence (Q5T2T1 134-230, limits assumed, looked up): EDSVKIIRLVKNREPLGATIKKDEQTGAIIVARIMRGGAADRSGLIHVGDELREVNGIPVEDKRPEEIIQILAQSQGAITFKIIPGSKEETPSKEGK

T15: RHPN1, Q8TCX5
T15 sequence (Q8TCX5 508-602, limits assumed, looked up): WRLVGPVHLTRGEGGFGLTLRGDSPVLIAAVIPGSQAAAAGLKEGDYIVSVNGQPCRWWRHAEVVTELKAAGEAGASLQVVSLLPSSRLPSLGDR


How the values were obtained:
Experiment in all cases: holdup assay
Set-up in all cases: key: below the threshold = too weak to quantify, mostly under pKd 3.1 to 4
Settings in all cases: plain residues with an end cap or a label only (N-terminal biotin on a linker: ado-ado)
ARHGEF11, O15085 = target: T1, ARHGEF11, O15085
APBA3_1, O96018 = target: T2, APBA3_1, O96018
MAGI2_6, Q86UL8 = target: MAGI2_6, Q86UL8
Chain of MAGI2_6, Q86UL8 (Q86UL8 1141-1229): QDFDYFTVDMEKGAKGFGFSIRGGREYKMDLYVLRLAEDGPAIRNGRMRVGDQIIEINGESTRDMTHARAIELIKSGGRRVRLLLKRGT

TJP3_3, O95049 = target: T3, TJP3_3, O95049
PDZD7_3, Q9H5P4 = target: T4, PDZD7_3, Q9H5P4
MPP6, Q9NZW5 = target: T5, MPP6, Q9NZW5
APBA2_1, Q99767 = target: T6, APBA2_1, Q99767
CASK, O14936 = target: CASK, O14936
Chain of CASK, O14936 (O14936 487-570): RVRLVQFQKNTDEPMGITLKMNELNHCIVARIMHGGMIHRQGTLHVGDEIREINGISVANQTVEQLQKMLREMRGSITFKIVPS

HTRA3, P83110 = target: T7, HTRA3, P83110
SNTG1, Q9NSN8 = target: T8, SNTG1, Q9NSN8
SNTA1, Q13424 = target: T9, SNTA1, Q13424
CARD11, Q9BXL7 = target: T10, CARD11, Q9BXL7
FRMPD2_1, Q68DX3 = target: FRMPD2_1, Q68DX3
Chain of FRMPD2_1, Q68DX3 (Q68DX3 770-861): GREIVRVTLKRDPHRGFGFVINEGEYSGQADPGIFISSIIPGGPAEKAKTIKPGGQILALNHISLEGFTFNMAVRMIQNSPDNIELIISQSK

NHERF3_4, Q5T2W1 = target: T11, NHERF3_4, Q5T2W1
FRMPD1, Q5SYB0 = target: T12, FRMPD1, Q5SYB0
TX1BP3, O14907 = target: T13, TX1BP3, O14907
TJP1_2, Q07157 = target: TJP1_2, Q07157
Chain of TJP1_2, Q07157 (Q07157 181-274): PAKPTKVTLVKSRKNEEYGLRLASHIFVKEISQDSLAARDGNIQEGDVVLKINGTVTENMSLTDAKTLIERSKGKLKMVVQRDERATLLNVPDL

MPP7, Q5T2T1 = target: T14, MPP7, Q5T2T1
MAGI1_1, Q96QZ7 = target: MAGI1_1, Q96QZ7
Chain of MAGI1_1, Q96QZ7 (Q96QZ7 1-106): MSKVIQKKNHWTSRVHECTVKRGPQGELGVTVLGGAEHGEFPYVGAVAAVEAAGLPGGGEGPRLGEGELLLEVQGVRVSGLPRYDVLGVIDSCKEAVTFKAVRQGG

RHPN1, Q8TCX5 = target: T15, RHPN1, Q8TCX5
GRIP2_7, Q9C0E4 = target: GRIP2_7, Q9C0E4
Chain of GRIP2_7, Q9C0E4 (Q9C0E4 934-1023): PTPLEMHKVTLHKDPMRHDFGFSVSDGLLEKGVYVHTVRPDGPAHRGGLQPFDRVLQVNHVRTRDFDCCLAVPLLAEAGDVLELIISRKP

GRIP2_4, Q9C0E4 = target: GRIP2_4, Q9C0E4
Chain of GRIP2_4, Q9C0E4 (Q9C0E4 446-548): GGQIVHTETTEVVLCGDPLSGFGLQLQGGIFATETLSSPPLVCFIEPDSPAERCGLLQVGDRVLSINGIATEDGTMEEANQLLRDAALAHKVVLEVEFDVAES

Binder | pKd (ARHGEF11, O15085) | pKd (APBA3_1, O96018) | pKd (MAGI2_6, Q86UL8) | pKd (TJP3_3, O95049) | pKd (PDZD7_3, Q9H5P4) | pKd (MPP6, Q9NZW5) | pKd (APBA2_1, Q99767) | pKd (CASK, O14936) | pKd (HTRA3, P83110) | pKd (SNTG1, Q9NSN8) | pKd (SNTA1, Q13424) | pKd (CARD11, Q9BXL7) | pKd (FRMPD2_1, Q68DX3) | pKd (NHERF3_4, Q5T2W1) | pKd (FRMPD1, Q5SYB0) | pKd (TX1BP3, O14907) | pKd (TJP1_2, Q07157) | pKd (MPP7, Q5T2T1) | pKd (MAGI1_1, Q96QZ7) | pKd (RHPN1, Q8TCX5) | other results
EKCGKEFSEF [PRKACA, P17612] | below the threshold | below the threshold | below the threshold | below the threshold | below the threshold | below the threshold | below the threshold | below the threshold | below the threshold | below the threshold | below the threshold | below the threshold | below the threshold | below the threshold | below the threshold | below the threshold | below the threshold | below the threshold | below the threshold | below the threshold | pKd (GRIP2_7, Q9C0E4): below the threshold; pKd (GRIP2_4, Q9C0E4): below the threshold
QLSFNTDTLC [ABCA2, Q9BZC7] | below the threshold | below the threshold | below the threshold | below the threshold | below the threshold | below the threshold | below the threshold | below the threshold | 4.26 | below the threshold | below the threshold | below the threshold | below the threshold | below the threshold | below the threshold | 4.04 | below the threshold | below the threshold | below the threshold | below the threshold | pKd (GRIP2_7, Q9C0E4): below the threshold; pKd (GRIP2_4, Q9C0E4): below the threshold
EDLEDEWEVI [TECPR2, O15040] | below the threshold | below the threshold | 3.56 | below the threshold | 3.92 | below the threshold | below the threshold | below the threshold | 4.12 | below the threshold | below the threshold | below the threshold | below the threshold | below the threshold | below the threshold | below the threshold | below the threshold | below the threshold | below the threshold | 3.57 | pKd (GRIP2_7, Q9C0E4): below the threshold; pKd (GRIP2_4, Q9C0E4): below the threshold
